Experimental data from the DeepSol protein solubility set.

experiment: soluble on expression in E. coli; label from the status in PepcDB or PDB records

Soluble on expression in E. coli, not soluble:
MGHHHHHHSHMAATKRKRRGGFAVQAKKPKRNEIDAEPPAKRHATAEEVEEEERDRIPGPVCKGKWKNKERILIFSSRGINFRTRHLMQDLRMLMPHSKADTKMDRKDKLFVINEVCEMKNCNKCIYFEAKKKQDLYMW
MGSDKIHHHHHHMTQMEMARKGVVSDEMKKVAEYEGVDVEIVRQKLAEGRAVLPKNKLHRIERPMIVGEGFSVKVNANIGTSQGFSSLEEEKEKARVAIEYGADSLMVLSTWGDLREIRRAIVEMSPVPVGSVPIYDSAVRSYQMKKNVVDFSEKDFFDMVIAHAEDGIDFMTIHVGVTRRVLDRIKSSRRVLKIVSRGGAIIAGWMIKNNKENPFYEHFDELLDIAKDYDITLSLGDGMRPGAVVDASDAQQFEELFVMGELVERAREKGVQVMLEGPGHVPLNEVEMNVRLMKKIGKGAPIFLLGPLPTDRAMGYDHIACAIGGALAGYYGADFLCYVTPSEHISLPDVEDVREGVIASKIAAIVADVARGNKKAWELEKKMALARKNFDWETMFSLSLGKDVAKKKYEERPYPDKGCSMCGPFCAIKIAEEFS
MDIRYFGTTPRYSEAVGANGLIFLSGMVPENGETAAEQTADVLAQIDRWLAECGSDKAHVLDAVIYLRDMGDYAEMNGVWDAWVAAGRTPARACVEARLARPEWRVEIKITAVKRDAATA
MGSDKIHHHHHHMPTGNELPINEGASALQMANTIFGPGVTVNTASYTGWSQSSGIYTNGDSVAPGVTPSDTGVILSTGRASHITQSNGDPNRSDSTSTNTPGPSNDPDFNAIAGFVGSNDASFLEVNFTPTTDVLTMQFTFASEEYPEYTGSVFNDIFGVWVNGALVASPVVNVTQINSVNQSENATLFNNNTDDDYNTEMDGFTVTLTLVMPVNINQPNDIKIGVADVADSAYDSNVLIAAGSIQGEFVAESDSITHLEGLTSVLDVLANDPTSGGIAFITHINGVEVNPGDSVTLSDGTIVTLLPSGELQIDPPATQTGLTSSETIHFTYTVDNGSGITDTAFVTVTAIPCFARGTMILTAHGEKPVETLVPGDRIATRDNGLQEIRWIGTRKVAAEGRFAPIAIEAGTFGMHRRLVVSPQHRVMLTHWMAEVMFGEDEVLVAAKDLVNDCSVRVLGPGDFDDGEVEYFHLLFDQHQIIFSDGLATESFLPGPTVMNDLDAAVQEEVLALFPDIDPDTKDGYGPAARLPLRAFEARAMLA
MNSSTENVTLKLKSEQLDIAKQWIQTEDVKAYKETSSIQKTFTIPVEREELVIEKIPTASDDKKEVIRIPLSEEEVNFSKHRIILEDVSIYKNQIEDVRHIEETLKKENPKIETFGNAKVIKKLEHHHHHH
MAHHHHHHSLIDCRYYQQNECRSCQWLEIPCSQQLTEKQYHLKQQLISINYDEAQWVAPFQSNQQGFRNKAKMVVSGSVERPILGILKNPNDPQSAIDLCDCPLYPTHFSAIFSILKDFIGRAGLVPYNIAKQKGELKYILLTESIATEKLMLRFVLRTENKLPLIRRELPKLLEKLPHLEVISINLQPQHAAILEGEQEIFLTEQQFLPENFNGIPLFIRPRGFFQTNPKVAAGLYATAQQWVAEFPIYNLWDLFCGVGGFGLHCAKALQEKWGKPIKLTGIEISSSAILAASHSAKILGLEHVNFQSLDAASVIENKNENKPDLVIVNPPRRGIGKELSEFLNQIQPHFILYSSCNAMTMGKDLQHLTCYKPLKIQLFDMFPQTSHYEVLVLLEREG
MGSDKIHHHHHHMITQQQIETVLGQIIDPTTGKDYLTSKAVSDIQIKQDNVSVNIELGYPAKSVLNTVHQQIEQAIRTVPGIGSITVNVTSNIIAHSAQRKLKLIPGVKNVIAVASGKGGVGKSATAVNLALALAAEGATVGILDADIYGPSQPQMLGVSGRPDSPDGKTIEPMQAHGIQMMSIGLLIDVETPMVWRGPMVTQALQQLLNDTRWHDLDYLVIDLPPGTGDIQLTLAQKIPVTGAVIVTTPQDIALLDARKGLKMFEKVGIPILGIVENMSLHTCSHCGHTEPIFGTGGGEKMCRDYNVELLGALPLDIRIREHTDAGKPSVVAEPDGQIADIYRTIARLVAAKISDMARDYSDVFTQIIMEDD
MTVSPIDPVKLEKLAEVAIKVGLQLQKDQDLVITAPLAALPLVRLLTKHAYIAGGGLVTTFYSDEETTLSRYRHASDANFDRASGWLYEGMAKAYANGAARLAIAGDNPMLLAEEDPAKVARANKANSTAYKPALEKISNFDINWNIISYPNPSWAKQVFPGLTEDEAVRKLADAIFAASRVDVADPVAAWAQHNANLAKRSAWLNGERFSALHFTGPGTDVKIGLADGHEWHGGASMAKNGVTCNPNIPTEEVFTTPHALRVDGYVSSTKPLSHQGTLIDDIQVKFEAGRIVEAKASKGEAVLNKVLDTDEGARRLGEVALVPHSSPISASGILFYNTLFDENASCHIALGQCYSKCFLDGASLSQDQIKAQGGNSSLIHIDWMIGSNKVDIDGVKPDGSTVPVMRKGEWA
ENILAGRAKAEKMRLSAERNRNQMEIYRSLQQGDECRKRQIHDYKNQLNCIRGLVDDNRTKEALRYIGQLTGSLNESIHQINTGHPVVNVLLNQKYQSAREQQISMTMTMNNLSELSLSEEDIVTLLANLLDNAIEACLKLHGDRRIQLKMVLEEEELFLSIRNPVEWEVKISGKTAAAAKEKSGEHGLGLGNVDAVIRKNRGRSTLQCQEGWFCFTAVILQPQR
MPSGVCEPKERSPCMNKIDKLDKELEKAREKAAEWQAKIRELEKQKQEEENSQIVQAVRSLKLTPAQLMAFLNDPKNSLTASGHTDPKPEAPEKEDTAHEEN
MGSDKIHHHHHHMMNTTETAPVLNPALEDEYSKALDEIKQFGEAQTHTVHDLGSATWAMRKLGELNKEDAEARKVVQANIDQLNEWLQHSLEARQSRRNYLEHEVLAYVANNRKHDPKYKLDTPYGKVSFTVKRKATPAISDETQVLNFIKSNWNESEQTQVIKRTEKVLVSELKKQVTVAGDKVIDEDGQPIPGMHVDPAGTETPHIKPIQMTEALS

Soluble on expression in E. coli, soluble:
EGLPVLAPVTKDTATSLYTIPFHDGASLVLDVAGLLVWSTCEGGQSPAEIACSSPTCLLANAYPAPGCPAPSCGSDRHDKPCTAYPSNPVTGACAAGSLFHTRFAANTTDGNKPVSEVNVRVLAACAPSKLLASLPRGSTGVAGLAGSGLALPSQVASAQKVPNKFLLCLPTGGPGVAIFGGGPLPWPQFTQSMDYTPLVAKGGSPAHYISARSIKVENTRVPISERALATGGVMLSTRLPYVLLRRDVYRPLVDAFTKALAAQPANGAPVARAVKPVAPFELCYDTKTLGNNPGGYWVPNVLLELDGGSDWAMTGKNSMVDVKPGTACVAFVEMKGVDAGDGSAPAVILGGAQMEDFVLDFDMEKKRLGFLRLPHFTGCSSFNFARST
MGLIVDDDNDGEVLIPPPNFSMVEDEIYRSGFPELENFGFLSTLNLRSIIYLCPEPYPEDNLKSLASNNIKLFQFGIEGKTDPPTPMPKDTVLSALRVLVDVRNHPILIHCKRGKHRTGCLVGCLRKVQNWCLSSVLEEYQKCAGLKWRQRDLRFIEDFDVLRLKQCLYSIIYQYNGYGLKRRKLLYQEENVVQEQQKPQATKG
MGHHHHHHSHGTRQELSGNTKSRESIQEPRSDYYNHEVPDIDLSDCEFPHVIEIYDFPQEFRTEDLLRVFCSYQKKGFDIKWVDDTHALGVFSSPITARDALGIKHTMVKIRPLSQATRAAKAKARAYAEFLQPAKERPETSAALARRLVISALGVRSKQSKTEREAELKKLQEARERKRLEAKQREDIWEGRDQSTV
MSLPLPKAELHLHIEGTLEPELAFALAARNGVPLPYAHTDELRKAYQFDDLQSFLNLYYELMAVLRTEQDFEDLANAYLPRAAAQGVRHAEIFFDPQAHIARGVAMGTVVEGLWRALGRSTENHGVSTQLIMCFLRDESAESALETLEAAKPYLDRIIGIGLDSAEVGHPPAKFREVYEAAAALGLRRVAHAGEEGPPEYITEALDVLGVERIDHGLRCMEDDALVERLVRERVPLTLCPLSNVRLRAVDVLAEHPLPAMLDAGLLCTVNSDDPAYFGGYVADNFHAVRDALGLDQERMRELARNSFVASFLEHDEERRARYLAEVEAYDFPGEGHHHHHH
MKIYVDADACPVKDVIIFEATKAEIPVTLVTSFSHYSNAEQPKGVETIYVDSGADAADYRIMQLAQKEDLIVTQDYGLASLALAKGCIVLHHKGYKYTNENIDQLLQTRYLSAMVRKSGKRTKGPKPFTAEDKEKFRALFKSMIPLLEHHHHHH
